Data published in article PMC11137577, “Unusual OB-fold protein PrgE and its role in conjugation”.

B1: 60-mer ssDNA (ssDNA)
DNA: CAGTGACAGTCTCCACGGTGAAGCAGTCGTACCTCTTGACGCATGAATAGATATATGTTA
B2: 60-mer dsDNA (dsDNA)
DNA 1: CAGTGACAGTCTCCACGGTGAAGCAGTCGTACCTCTTGACGCATGAATAGATATATGTTA
DNA 2: TAACATATATCTATTCATGCGTCAAGAGGTACGACTGCTTCACCGTGGAGACTGTCACTG
B3: 30-mer dsDNA (dsDNA)
DNA 1: CAGTGACAGTCTCCACGGTGAAGCAGTCGT
DNA 2: ACGACTGCTTCACCGTGGAGACTGTCACTG
B4: Poly-A 60-mer (ssDNA)
DNA: AAAAAAAAAAAAAAAAAAAAAAAAAAAAAAAAAAAAAAAAAAAAAAAAAAAAAAAAAAAA

Columns and labels:
[1] = target: PrgE (Enterococcus faecalis (plasmid pCF10)); assay: SEC-MALS; 60 μM PrgE, Superdex 200 Increase 10/300 GL, 20 mM Hepes pH 7.5, 300 mM NaCl
PrgE WT [2] = target: T1, PrgE WT (Enterococcus faecalis (plasmid pCF10), UniProt D1LHE9 1-144); assay: fluorescence anisotropy; 100 mM NaCl; 20 mM Hepes pH 7.5, 50 or 100 mM NaCl, 10 nM FITC-DNA, 0-20 uM protein, 30 min at RT; settings: protein: recombinant, tags: C-terminal 10xHis removed with 3C (PreScission) protease, chain copies: 3
T1 sequence: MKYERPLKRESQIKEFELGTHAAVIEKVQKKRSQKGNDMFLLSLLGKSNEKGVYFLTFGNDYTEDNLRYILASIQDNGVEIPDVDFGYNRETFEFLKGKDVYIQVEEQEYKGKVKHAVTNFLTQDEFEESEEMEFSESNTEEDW

ΔN-PrgE = ΔN-PrgE (Enterococcus faecalis (plasmid pCF10), UniProt D1LHE9 13-144, del1-12); assay: fluorescence anisotropy; 50 mM NaCl; 20 mM Hepes pH 7.5, 50 or 100 mM NaCl, 10 nM FITC-DNA, 0-20 uM protein, 30 min at RT; settings: protein: recombinant, tags: C-terminal 10xHis removed with 3C (PreScission) protease
PrgE WT [3] = target: T1, PrgE WT; assay: fluorescence anisotropy; 50 mM NaCl; quadratic fit (Hill coefficient ca 1.5 in Hill fit); 20 mM Hepes pH 7.5, 50 or 100 mM NaCl, 10 nM FITC-DNA, 0-20 uM protein, 30 min at RT; settings: protein: recombinant; tags: C-terminal 10xHis removed with 3C (PreScission) protease; chain copies: 3; label: 5' FITC; single strand
PrgE WT [4] = target: T1, PrgE WT; assay: fluorescence anisotropy; 50 mM NaCl; 20 mM Hepes pH 7.5, 50 or 100 mM NaCl, 10 nM FITC-DNA, 0-20 uM protein, 30 min at RT; settings: protein: recombinant, tags: C-terminal 10xHis removed with 3C (PreScission) protease, chain copies: 3
PrgE WT [5] = target: T1, PrgE WT; assay: X-ray crystal structure; 15% PEG 400, 50 mM MES pH 6.5, 80 mM Mg acetate, 15 mM MgCl2; 5 nt per subunit; 20 mM Hepes pH 7.5, 50 or 100 mM NaCl, 10 nM FITC-DNA, 0-20 uM protein, 30 min at RT; settings: protein: recombinant; tags: C-terminal 10xHis removed with 3C (PreScission) protease; chain copies: 3; single strand
[6] = label: 5' FITC on strand 1, blunt

Molecule	Kd (PrgE WT [2]; label: 5' FITC, single strand) [nM]	Kd (ΔN-PrgE; label: 5' FITC, single strand) [nM]	Kd (PrgE WT [2]; [6]) [nM]	Kd (ΔN-PrgE; [6]) [nM]	Kd (PrgE WT [4]; [6]) [nM]	also measured
PrgE (natural protein)	–	–	–	–	–	stoichiometry N [1]: 3
B1	370 ± 10	4490 ± 480	–	–	–	Kd (PrgE WT [3]): 330 ± 20 nM
B2	–	–	950 ± 30	5560 ± 190	500 ± 140	–
CAGTGACAGTCTCCACGGTGAAGCAGTCGT (ssDNA) [30-mer ssDNA]	1840 ± 150	3850 ± 490	–	–	–	Kd (PrgE WT [4]; label: 5' FITC, single strand): 1020 ± 20 nM
B3	–	–	3360 ± 280	4390 ± 240	1960 ± 260	–
B4	–	–	–	–	–	binding result (PrgE WT [5]): binds
